Assay results published in patent US20180282401A1 (AXON NEUROSCIENCE, published 2018).

T1: 264-293/4R
T1 peptide: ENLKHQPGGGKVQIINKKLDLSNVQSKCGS

T2: 264-293/3R
T2 peptide: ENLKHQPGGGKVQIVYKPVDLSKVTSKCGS

T3: 281-305/4R
T3 peptide: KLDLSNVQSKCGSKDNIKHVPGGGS

T4: 259-288/4R
T4 peptide: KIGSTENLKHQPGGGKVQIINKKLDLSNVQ

T5: 314-342/R4
T5 peptide: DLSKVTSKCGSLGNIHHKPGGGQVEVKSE

T6: 256-285/4R
T6 peptide: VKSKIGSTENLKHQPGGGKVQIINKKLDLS

T7: 291-320/4R
T7 peptide: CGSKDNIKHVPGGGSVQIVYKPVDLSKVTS

T8: 256-285/3R (not fully specified)
T8 peptide: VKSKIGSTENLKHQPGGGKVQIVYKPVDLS

T9: 259-288/3R (not fully specified)
T9 peptide: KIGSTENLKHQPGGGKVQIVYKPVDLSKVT

T10: 282-311/4R
T10 peptide: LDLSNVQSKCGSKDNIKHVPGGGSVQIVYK

B1: monoclonal antibody DC8E8 (antibody, V domains shown)
VH: QVQLQQSGPELVKPGTSVKMPCKASGYIFTDYVISWVKQRTGQGLEWIGEIFPRSGSTYYNEKFKGKATLTADKSSNTAYMQLSSVTSEDSAVYFCARDYYGTSFAMDYWGQGTSVTVSS
VL: DIVMSQSPSSLAVSAGEKVTMSCKSSQSLLNSRTRKNYLAWYQQKPGQSPKLLIYWASTRESGVPDRFTGSGSGTDFTLTISSVQAEDLAVYYCKQSFYLRTFGGGTKLDIK
notes: also called mAb DC8E8; antibody of hybridoma ATCC PTA-11994
B2: recombinant scFv fragment of monoclonal antibody DC8E8 (scDC8E8v) (scFv, V domains shown)
VH: B1 VH
VL: B1 VL

Experiments:
[1] = target: B1; assay: competition ELISA: peptide pre-incubated with DC8E8, binding to plate-coated tauΔ(1-150;392-441)4R measured
tauΔ(1-150;392-441)/4R [2] = target: T11, tauΔ(1-150;392-441)/4R (human, UniProt P10636 468-708); assay: SPR (BIACORE3000, CM5), DC8E8 captured by anti-mouse antibody, tau protein injected, 25 °C, PBS-P, two-phase reaction model
T11 construct: Recombinant truncated human tau, numbered on 2N4R; also the transgene of SHR72 rats; also called misdisordered tau; pathological tau

human tau isoform 2N4R [3] = target: T12, human tau isoform 2N4R (human, UniProt P10636 1-758); assay: as above
T12 construct: also called tau 2N4R; tau441

human tau isoform 2N3R [4] = target: T13, human tau isoform 2N3R (human, UniProt P10636 2-758); assay: as above
T13 construct: also called tau 2N3R; tau39

tauΔ(1-150;392-441)/3R [5] = target: T14, tauΔ(1-150;392-441)/3R (human, UniProt P10636 468-708); assay: as above
T14 construct: Also the transgene of SHR24 rats; also called misdisordered three repeat tau; tau type IIB (151-391/R3)

264-293/4R = target: T1, 264-293/4R; assay: ELISA, synthetic peptide coated (5 µg/ml), DC8E8 hybridoma culture supernate, anti-mouse Ig-HRP, absorbance 492 nm
264-293/3R = target: T2, 264-293/3R; assay: as above
281-305/4R = target: T3, 281-305/4R; assay: as above
259-288/4R = target: T4, 259-288/4R; assay: as above
314-342/R4 = target: T5, 314-342/R4; assay: as above
275-304/4R = assay: as above
256-285/4R = target: T6, 256-285/4R; assay: as above
291-320/4R = target: T7, 291-320/4R; assay: as above
256-285/3R = target: T8, 256-285/3R; assay: as above
259-288/3R = target: T9, 259-288/3R; assay: as above
282-311/4R = target: T10, 282-311/4R; assay: as above
tauΔ(1-150;392-441)/4R [6] = target: T11, tauΔ(1-150;392-441)/4R; assay: SPR (BIACORE3000, CM5), DC8E8 captured by anti-mouse antibody, tau protein injected, 25 °C, PBS-P, two-phase reaction model; remark: listed apart in the source
human tau isoform 2N4R [7] = target: T12, human tau isoform 2N4R; assay: as above; remark: listed apart in the source
human tau isoform 2N3R [8] = target: T13, human tau isoform 2N3R; assay: as above; remark: listed apart in the source
tauΔ(1-150;392-441)/3R [9] = target: T14, tauΔ(1-150;392-441)/3R; assay: as above; remark: listed apart in the source
tauΔ(1-150;392-441)/4R [10] = target: T11, tauΔ(1-150;392-441)/4R; assay: SPR (Biacore 3000, CM5), His-tagged scDC8E8v captured by anti-His antibody (60 RU), tau protein injected at 100 µl/min, 25 °C, 1:1 model
human tau isoform 2N4R [11] = target: T12, human tau isoform 2N4R; assay: as above
[12] = target: B1; assay: competition ELISA: peptide pre-incubated with DC8E8 (1 µg/ml), then on plates coated with the competitor tauΔ(1-150;392-441)/4R; peptide series 1.25-160 µM in paragraph 380, the concentration of the bars is not given

T14 sequence (P10636 other isoform, or with tags, fused parts or gaps mutant): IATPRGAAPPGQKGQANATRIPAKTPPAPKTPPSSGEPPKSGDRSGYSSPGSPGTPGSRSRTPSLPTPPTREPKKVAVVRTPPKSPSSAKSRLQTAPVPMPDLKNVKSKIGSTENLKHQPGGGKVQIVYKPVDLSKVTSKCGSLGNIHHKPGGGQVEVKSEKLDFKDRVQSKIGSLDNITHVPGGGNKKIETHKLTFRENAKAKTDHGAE
T13 sequence (P10636 other isoform, or with tags, fused parts or gaps limits assumed): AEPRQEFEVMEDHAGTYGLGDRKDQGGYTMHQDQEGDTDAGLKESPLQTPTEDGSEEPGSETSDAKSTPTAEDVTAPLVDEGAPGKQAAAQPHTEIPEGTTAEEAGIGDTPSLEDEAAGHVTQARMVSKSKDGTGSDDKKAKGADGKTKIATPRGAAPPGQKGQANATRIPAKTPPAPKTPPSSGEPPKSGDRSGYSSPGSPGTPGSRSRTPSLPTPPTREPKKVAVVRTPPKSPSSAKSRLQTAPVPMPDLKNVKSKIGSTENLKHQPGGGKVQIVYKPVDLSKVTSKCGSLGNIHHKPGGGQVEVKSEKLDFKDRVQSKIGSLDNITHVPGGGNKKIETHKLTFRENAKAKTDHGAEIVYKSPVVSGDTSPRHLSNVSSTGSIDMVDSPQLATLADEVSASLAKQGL
T12 sequence (P10636 other isoform, or with tags, fused parts or gaps limits assumed): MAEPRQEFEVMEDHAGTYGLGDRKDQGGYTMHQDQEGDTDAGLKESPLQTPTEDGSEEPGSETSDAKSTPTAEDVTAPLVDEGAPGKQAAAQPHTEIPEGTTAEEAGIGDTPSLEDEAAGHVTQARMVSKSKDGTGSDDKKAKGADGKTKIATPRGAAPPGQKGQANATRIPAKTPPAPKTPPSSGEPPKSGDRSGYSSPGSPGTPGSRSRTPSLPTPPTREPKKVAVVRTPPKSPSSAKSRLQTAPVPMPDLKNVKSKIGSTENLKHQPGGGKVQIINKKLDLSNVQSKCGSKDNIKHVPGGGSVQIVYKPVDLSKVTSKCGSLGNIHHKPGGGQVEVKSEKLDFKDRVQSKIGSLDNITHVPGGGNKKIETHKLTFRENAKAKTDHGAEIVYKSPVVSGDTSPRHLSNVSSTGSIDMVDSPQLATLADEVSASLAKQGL
T11 sequence (P10636 other isoform, or with tags, fused parts or gaps mutant limits assumed): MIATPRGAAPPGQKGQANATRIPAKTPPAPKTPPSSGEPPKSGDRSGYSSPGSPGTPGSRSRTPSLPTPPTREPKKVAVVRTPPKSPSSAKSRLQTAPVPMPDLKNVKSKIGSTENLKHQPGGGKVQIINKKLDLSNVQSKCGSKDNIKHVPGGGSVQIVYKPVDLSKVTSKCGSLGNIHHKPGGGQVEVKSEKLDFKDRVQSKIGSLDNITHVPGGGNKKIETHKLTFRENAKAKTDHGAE

With SVFQHLPGGGSC (Designed peptide keeping HxPGGG) [designer therapeutic epitope 2 SVFQHLPGGGSC (SEQ ID NO: 251)] the “IC50 (read off the curve)” value [1] was roughly 0.03 µM.

With B1 the koff (tauΔ(1-150;392-441)/4R [2]) was 0.04 s⁻¹, the kon (tauΔ(1-150;392-441)/4R [2]) was 2.6e+06 M⁻¹ s⁻¹ and the koff (human tau isoform 2N4R [3]) was 0.04 s⁻¹. It also gave a kon (human tau isoform 2N4R [3]) of 460000 M⁻¹ s⁻¹, a koff (human tau isoform 2N3R [4]) of 0.5 s⁻¹ and a kon (human tau isoform 2N3R [4]) of 140000 M⁻¹ s⁻¹. For the same binder, the koff (tauΔ(1-150;392-441)/3R [5]) was 0.5 s⁻¹, the kon (tauΔ(1-150;392-441)/3R [5]) was 490000 M⁻¹ s⁻¹ and the binding result (264-293/4R) was “binds”. B1: binds (264-293/3R); binds (281-305/4R); binds (259-288/4R). B1: binds (314-342/R4); binds (275-304/4R); binds (256-285/4R). B1: binds (291-320/4R); binds (256-285/3R); binds (259-288/3R). For the same binder, the binding result (282-311/4R) was “binds”, the Ka (tauΔ(1-150;392-441)/4R [6]) was 7.3e+07 M⁻¹ and the Ka (human tau isoform 2N4R [7]) was 1.1e+07 M⁻¹. For the same binder, the Ka (human tau isoform 2N3R [8]) was 290000 M⁻¹ and the Ka (tauΔ(1-150;392-441)/3R [9]) was 1.1e+06 M⁻¹.

B2 was tested, and the Ka (tauΔ(1-150;392-441)/4R [10]) was 8.1e+06 M⁻¹, the koff (tauΔ(1-150;392-441)/4R [10]) was 0.02 s⁻¹ and the kon (tauΔ(1-150;392-441)/4R [10]) was 180000 M⁻¹ s⁻¹. The Ka (human tau isoform 2N4R [11]) was 270000 M⁻¹, the koff (human tau isoform 2N4R [11]) was 0.2 s⁻¹ and the kon (human tau isoform 2N4R [11]) was 57000 M⁻¹ s⁻¹.

DNIKHVPGGGS (check the listing) [tau peptide 295-DNIKHVPGGGS-305 (SEQ ID NO: 171)]: binds [12].

GWSIHSPGGGSC (Designed peptide keeping HxPGGG) [designer therapeutic epitope 1 GWSIHSPGGGSC (SEQ ID NO: 250)] was tested, and the “IC50 (read off the curve)” value [1] was 2 to 3 µM.
